Our source for the Kd values is paper PMC12373997.

pKd: −log10 of the molar value.

Chain of A. thaliana augmin N-clamp with AUG8 lacking its N-terminal extension (O48767 whole entry): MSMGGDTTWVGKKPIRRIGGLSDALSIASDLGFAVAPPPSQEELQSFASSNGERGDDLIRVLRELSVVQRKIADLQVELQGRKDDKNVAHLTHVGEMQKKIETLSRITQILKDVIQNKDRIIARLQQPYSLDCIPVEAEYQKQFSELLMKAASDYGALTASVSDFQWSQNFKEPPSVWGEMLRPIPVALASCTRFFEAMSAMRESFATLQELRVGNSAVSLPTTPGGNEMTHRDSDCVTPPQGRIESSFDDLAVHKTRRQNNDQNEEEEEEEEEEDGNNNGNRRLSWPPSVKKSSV
Chain of A. thaliana augmin N-clamp with AUG8 lacking its N-terminal extension (Q94BP7 whole entry): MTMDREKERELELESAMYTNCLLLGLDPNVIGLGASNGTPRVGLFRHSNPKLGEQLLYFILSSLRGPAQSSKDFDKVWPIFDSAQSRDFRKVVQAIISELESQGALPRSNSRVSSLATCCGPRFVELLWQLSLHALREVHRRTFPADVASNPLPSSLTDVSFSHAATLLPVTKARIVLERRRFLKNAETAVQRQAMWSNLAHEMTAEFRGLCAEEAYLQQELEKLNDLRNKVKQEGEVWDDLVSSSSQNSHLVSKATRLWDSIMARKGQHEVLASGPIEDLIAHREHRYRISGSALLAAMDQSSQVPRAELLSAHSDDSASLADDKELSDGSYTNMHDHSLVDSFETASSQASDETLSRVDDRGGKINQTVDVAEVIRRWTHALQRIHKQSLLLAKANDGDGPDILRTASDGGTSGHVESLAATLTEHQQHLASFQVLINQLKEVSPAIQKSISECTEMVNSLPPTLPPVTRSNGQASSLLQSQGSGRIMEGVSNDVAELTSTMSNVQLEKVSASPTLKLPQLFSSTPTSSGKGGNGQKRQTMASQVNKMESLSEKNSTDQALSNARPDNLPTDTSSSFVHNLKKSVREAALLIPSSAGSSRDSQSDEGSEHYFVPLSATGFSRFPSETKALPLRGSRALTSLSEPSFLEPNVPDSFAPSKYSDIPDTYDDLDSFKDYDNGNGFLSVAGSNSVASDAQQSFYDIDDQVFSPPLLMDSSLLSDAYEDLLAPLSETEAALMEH
Chain of A. thaliana augmin N-clamp with AUG8 lacking its N-terminal extension (Q0WTP1 whole entry): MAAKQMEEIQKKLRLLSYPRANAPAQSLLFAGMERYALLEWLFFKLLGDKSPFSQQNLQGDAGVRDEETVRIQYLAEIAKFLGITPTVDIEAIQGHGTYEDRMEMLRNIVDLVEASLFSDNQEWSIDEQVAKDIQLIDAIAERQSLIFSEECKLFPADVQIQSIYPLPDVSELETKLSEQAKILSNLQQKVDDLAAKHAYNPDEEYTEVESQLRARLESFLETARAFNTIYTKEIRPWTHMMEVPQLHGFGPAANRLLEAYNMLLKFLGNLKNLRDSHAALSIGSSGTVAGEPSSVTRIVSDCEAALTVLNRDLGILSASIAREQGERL
Chain of A. thaliana augmin N-clamp with AUG8 lacking its N-terminal extension (Q9SUH5 whole entry): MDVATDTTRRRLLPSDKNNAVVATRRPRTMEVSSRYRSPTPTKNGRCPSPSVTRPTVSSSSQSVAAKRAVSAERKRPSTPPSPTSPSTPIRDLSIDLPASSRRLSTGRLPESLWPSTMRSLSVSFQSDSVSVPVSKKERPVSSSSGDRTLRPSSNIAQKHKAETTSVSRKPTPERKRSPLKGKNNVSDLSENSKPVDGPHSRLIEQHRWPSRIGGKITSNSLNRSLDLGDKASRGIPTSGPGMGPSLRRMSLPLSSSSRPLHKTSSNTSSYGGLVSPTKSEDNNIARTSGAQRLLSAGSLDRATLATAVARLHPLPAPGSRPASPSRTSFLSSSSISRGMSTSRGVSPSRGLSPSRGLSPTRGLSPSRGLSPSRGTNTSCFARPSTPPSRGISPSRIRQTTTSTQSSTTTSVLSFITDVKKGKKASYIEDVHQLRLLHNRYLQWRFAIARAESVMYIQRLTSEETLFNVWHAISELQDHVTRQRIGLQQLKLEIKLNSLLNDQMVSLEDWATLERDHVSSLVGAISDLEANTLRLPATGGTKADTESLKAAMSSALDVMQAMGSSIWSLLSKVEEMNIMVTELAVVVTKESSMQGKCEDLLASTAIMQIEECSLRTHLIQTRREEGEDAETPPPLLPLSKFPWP
Chain of X. laevis augmin N-clamp, wild type (HAUS2, HAUS6, HAUS7-EGFP-HIS8, HAUS8-HIS8) (Q0IHJ3 whole entry, looked up, one chain of several): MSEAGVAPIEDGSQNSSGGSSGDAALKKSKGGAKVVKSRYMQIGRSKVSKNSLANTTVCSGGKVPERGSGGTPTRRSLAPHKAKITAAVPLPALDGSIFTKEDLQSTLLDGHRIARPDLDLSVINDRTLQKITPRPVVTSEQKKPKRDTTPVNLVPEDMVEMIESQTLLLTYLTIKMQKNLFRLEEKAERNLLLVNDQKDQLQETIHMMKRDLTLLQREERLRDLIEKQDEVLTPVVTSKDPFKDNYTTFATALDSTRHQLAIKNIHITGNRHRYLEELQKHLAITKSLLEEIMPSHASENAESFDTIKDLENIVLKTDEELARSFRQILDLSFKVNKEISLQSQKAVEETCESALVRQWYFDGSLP
Chain of X. laevis augmin N-clamp with HAUS8 lacking its N-terminal extension (Q0IHJ3 whole entry, looked up, one chain of several): as above

For the test, the target named is Taxol-stabilized microtubules polymerised from purified porcine brain tubulin (porcine) (UniProt P02550). Kind of test: co-sedimentation; tubulin co-sedimentation: taxol-stabilized MTs (varied, α/β-tubulin heterodimer molarity) with 1 µM purified N-clamp, 0.25 mg/ml BSA, BRB80-MT buffer (80 mM PIPES, 1 mM MgCl2, 1 mM EGTA, 12.5% glycerol, pH 6.8), 20 min at room temperature, 200,000 g 10 min 27 °C; SDS-PAGE densitometry of pellet; apparent Kd from a quadratic fit.
As for “A. thaliana augmin N-clamp with AUG8 lacking its N-terminal extension (from UniProt O48767 1-296; Q94BP7 1-741; Q0WTP1 1-329; Q9SUH5 1-644) (complex)”, the pKd is 5.68.
As for “A. thaliana augmin N-clamp, wild type (orthologs of HAUS2, HAUS6, HAUS7-EGFP-HIS8, HAUS8-HIS8) (from UniProt O48767 1-296; Q94BP7 1-741; Q0WTP1 1-329; Q9SUH5 1-644) (complex)”, the figure is 8.00.
The value for “GST-tagged D. melanogaster augmin N-clamp (Msd1, Dgt6, Msd5-EGFP-GST, Dgt4-HIS8) (from UniProt Q9W0G7 1-138; Q9VAP2 1-654; Q9W4M8 1-188) (complex)” was 7.40.
Turning to “H. sapiens augmin N-clamp with HAUS6^4A-mut (K84A, R90A, K91A, K98A) (from UniProt Q9NVX0 1-235; Q7Z4H7 1-955; Q99871 1-358; Q9BT25 1-410) (complex)”, the pKd was 5.25.
The value for “H. sapiens augmin N-clamp, wild type (HAUS2, HAUS6, HAUS7-EGFP-HIS8, HAUS8-HIS8) (from UniProt Q9NVX0 1-235; Q7Z4H7 1-955; Q99871 1-358; Q9BT25 1-410) (complex)” was 6.10.
The value for “X. laevis augmin N-clamp with HAUS8 lacking its N-terminal extension (from UniProt Q0IHJ3 1-367; Q0IHJ3 1-367; Q0IHJ3 1-367) (complex)” was 5.66.
In the case of “X. laevis augmin N-clamp, wild type (HAUS2, HAUS6, HAUS7-EGFP-HIS8, HAUS8-HIS8) (from UniProt Q0IHJ3 1-367; Q0IHJ3 1-367; Q0IHJ3 1-367) (complex)”, the pKd is 6.22.
